The term stoichiometry N denotes a count of units in the complex or per binding partner.

This passage reports stoichiometry N results from paper PMC10791855.

What all share (experiment): SEC; gel filtration on HiPrep 16/60 Sephacryl S-200 HR in 20 mM Tris-HCl, 1.5 M NaCl, 50 mM imidazole, pH 7.4; molecular mass estimated against standard proteins
In experiment [1] the target is Universal stress protein USP5 from Haloferax mediterranei (Haloferax mediterranei).
Experiment [2] concerns the target Universal stress protein USP21 from Haloferax mediterranei (Haloferax mediterranei).
Experiment [3] addresses Universal stress protein USP28 from Haloferax mediterranei (Haloferax mediterranei).

Turning to “Universal stress protein USP5 from Haloferax mediterranei (natural protein)”, the stoichiometry N in experiment [1] was 2.

Turning to “Universal stress protein USP21 from Haloferax mediterranei (natural protein)”, the stoichiometry N in experiment [2] was 2.

Take “Universal stress protein USP28 from Haloferax mediterranei (natural protein)”: the stoichiometry N in experiment [3] was 2.
